The target in the data set is T1, FLAG-TCF4, full length human TCF4 expressed from pFLAG-CMV-4, Q9NQB0.
T1 chain: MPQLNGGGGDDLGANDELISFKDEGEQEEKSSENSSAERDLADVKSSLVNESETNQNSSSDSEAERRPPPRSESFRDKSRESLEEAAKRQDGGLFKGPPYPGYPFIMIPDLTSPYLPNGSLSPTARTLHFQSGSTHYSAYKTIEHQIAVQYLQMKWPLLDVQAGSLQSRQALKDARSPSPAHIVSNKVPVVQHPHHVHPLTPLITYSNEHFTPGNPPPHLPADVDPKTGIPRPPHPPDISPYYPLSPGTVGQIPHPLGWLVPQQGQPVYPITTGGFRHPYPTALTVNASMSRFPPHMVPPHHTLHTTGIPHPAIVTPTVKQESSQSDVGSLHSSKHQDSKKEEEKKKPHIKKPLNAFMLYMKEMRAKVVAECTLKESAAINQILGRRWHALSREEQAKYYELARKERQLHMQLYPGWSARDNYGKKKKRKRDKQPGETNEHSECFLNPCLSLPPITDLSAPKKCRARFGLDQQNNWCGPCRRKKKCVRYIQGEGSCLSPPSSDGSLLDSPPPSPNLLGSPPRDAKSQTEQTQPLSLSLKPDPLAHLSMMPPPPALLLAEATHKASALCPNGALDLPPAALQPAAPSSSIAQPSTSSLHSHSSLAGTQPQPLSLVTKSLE

These results are taken from patent US20090215081.

B1: HA-TNIK K54R, ATP binding site mutant of human TNIK expressed from pCIneo-HA-TNIK K54R (protein)
chain: MASDSPARSLDEIDLSALRDPAGIFELVELVGNGTYGQVYKGRHVKTGQLAAIRVMDVTGDEEEEIKQEINMLKKYSHHRNIATYYGAFIKKNPPGMDDQLWLVMEFCGAGSVTDLIKNTKGNTLKEEWIAYICREILRGLSHLHQHKVIHRDIKGQNVLLTENAEVKLVDFGVSAQLDRTVGRRNTFIGTPYWMAPEVIACDENPDATYDFKSDLWSLGITAIEMAEGAPPLCDMHPMRALFLIPRNPAPRLKSKKWSKKFQSFIESCLVKNHSQRPATEQLMKHPFIRDQPNERQVRIQLKDHIDRTKKKRGEKDETEYEYSGSEEEEEENDSGEPSSILNLPGESTLRRDFLRLQLANKERSEALRRQQLEQQQRENEEHKRQLLAERQKRIEEQKEQRRRLEEQQRREKELRKQQEREQRRHYEEQMRREEERRRAEHEQEYIRRQLEEEQRQLEILQQQLLHEQALLLEYKRKQLEEQRQAERLQRQLKQERDYLVSLQHQRQEQRPVEKKPLYHYKEGMSPSEKPAWAKEVEERSRLNRQSSPAMPHKVANRISDPNLPPRSESFSISGVQPARTPPMLRPVDPQIPHLVAVKSQGPALTASQSVHEQPTKGLSGFQEALNVTSHRVEMPRQNSDPTSENPPLPTRIEKFDRSSWLRQEEDIPPKVPQRTTSISPALARKNSPGNGSALGPRLGSQPIRASNPDLRRTEPILESPLQRTSSGSSSSSSTPSSQPSSQGGSQPGSQAGSSERTRVRANSKSEGSPVLPHEPAKVKPEESRDITRPSRPASYKKAIDEDLTALAKELRELRIEETNRPMKKVTDYSSSSEESESSEEEEEDGESETHDGTVAVSDIPRLIPTGAPGSNEQYNVGMVGTHGLETSHADSFSGSISREGTLMIRETSGEKKRSGHSDSNGFAGHINLPDLVQQSHSPAGTPTEGLGRVSTHSQEMDSGTEYGMGSSTKASFTPFVDPRVYQTSPTDEDEEDEESSAAALFTSELLRQEQAKLNEARKISVVNVNPTNIRPHSDTPEIRKYKKRFNSEILCAALWGVNLLVGTENGLMLLDRSGQGKVYNLINRRRFQQMDVLEGLNVLVTISGKKNKLRVYYLSWLRNRILHNDPEVEKKQGWITVGDLEGCIHYKVVKYERIKFLVIALKNAVEIYAWAPKPYHKFMAFKSFADLQHKPLLVDLTVEEGQRLKVIFGSHTGFHVIDVDSGNSYDIYIPSHIQGNITPHAIVILPKTDGMEMLVCYEDEGVYVNTYGRITKDVVLQWGEMPTSVAYIHSNQIMGWGEKAIEIRSVETGHLDGVFMHKRAQRLKFLCERNDKVFFASVRSGGSSQVFFMTLNRNSMMNW
For B1, the “serine phosphorylation of TCF4 (immunoprecipitation with anti-TCF4, immunoblot with anti-phospho-serine antibody)” value is listed as “significant serine phosphorylation was not observed compared with control”.
